Common to all, as to assay: cell-based or functional assay
In experiment [1] the target is HIV-1 MGRM-C-005 Env (HIV-1).
The target of experiment [2] is HIV-1 MGRM-A-014 envelope glycoprotein (Env) (HIV-1).
Experiment [3] has as its target HIV-1 Env of isolate MGRM-D-026 (clade D) (HIV-1).
Experiment [4] has as its target HIV-1 92TH021 envelope protein (Env) on pseudotyped virus (HIV-1 isolate 92TH021).
Experiment [5] concerns the target HIV-1 VLGCA1 envelope glycoprotein (Env) on pseudovirus (HIV-1).
Experiment [6] deals with HIV-1 Env of isolate MGRM-G-001 (subtype G) (HIV-1).
In experiment [7] the target is HIV-1 92RW026 envelope glycoprotein (Env) (HIV-1).
For experiment [8], the target named is HIV-1 Env of isolate MGRM-D-016 (HIV-1).
Experiment [9] has as its target HIV-1 Env of isolate 94UG103 (HIV-1).
For experiment [10], the target named is HIV-1 IAVI-C18 envelope protein (Env) on pseudovirus (HIV-1).
The target of experiment [11] is HIV-1 Env of isolate MGRM-A-007 (HIV-1).
For experiment [12], the target named is HIV-1 MGRM-C-028 envelope glycoprotein (Env) (HIV-1).
In experiment [13] the target is HIV-1 IAVI_C22 envelope protein (Env) on pseudotyped virus (HIV-1 isolate IAVI C22).
The target of experiment [14] is HIV-1 Env of isolate 94KE105 (HIV-1).
Experiment [15] has as its target HIV-1 APV6 envelope glycoprotein (Env) (HIV-1).
For experiment [16], the target named is HIV-1 MGRM-C-027 envelope glycoprotein (Env) (HIV-1).
In experiment [17] the target is HIV-1 Env of isolate MGRM-A-001 (HIV-1).
Experiment [18] concerns the target HIV-1 Env of isolate MGRM-A-006 (HIV-1).
Experiment [19] addresses HIV-1 Env of isolate 92WR020 (HIV-1).
Experiment [20] addresses HIV-1 Env of isolate MGRM-F1-015 (HIV-1).
For experiment [21], the target named is HIV-1 Env of isolate 92UG001 (HIV-1).

As for 1496_C09 (PG9) (TCN-109) (antibody), the IC50 amounted to 2.98 µg/mL in experiment [1], 0.34 µg/mL in experiment [9] and 1.06 µg/mL in [11]. Moreover, the IC50 (µg/ml), pseudovirus neutralization in experiment [2] turned out to be 0.62 µg/mL; in [3] it was 17.5 µg/mL; in experiment [5], 0.07 µg/mL; in experiment [7], 0.27 µg/mL. Also, the IC50, pseudovirus neutralization, 1 hour Virus/Ab Incubation in experiment [4] stood at 0.0612 µg/mL; in experiment [13], 24.9 µg/mL. For the same substance, the results for the IC50, pseudovirus neutralization, 18 hour Virus/Ab Incubation in experiment [4] and in experiment [13] were 0.0571 µg/mL and 2.11 µg/mL, respectively. Also, the neutralization IC50 in experiment [6] worked out at 0.166 µg/mL; in experiment [10] it was 0.0535 µg/mL. For the same substance, the IC50 (µg/mL), pseudovirus neutralization came out at 0.098 µg/mL in experiment [8] and 37.9 µg/mL in experiment [14]. Moreover, the IC50 neutralization was 0.121 µg/mL in [12], 0.214 µg/mL in [15] and 2.45 µg/mL in [16].
With PGT-121 (antibody), the IC50 (µg/mL), pseudovirus neutralization in [17] was over 50 µg/mL; in experiment [18], 0.396 µg/mL; in experiment [9], 2.52 µg/mL; in experiment [19] it was 0.004 µg/mL; in [11], over 50 µg/mL; in experiment [14] it was 0.029 µg/mL. In addition, the Primary Neutralization Index (B cell culture well 4838 L06) in experiment [9] amounted to 1.4. The same substance registered a Primary Neutralization Index (B cell culture well 4873 E03) in experiment [9] of 0.8. For the same substance, the IC50 neutralization in [12] came to 1.19 µg/mL; in experiment [15], 0.0423 µg/mL; in experiment [16] it was 0.0094 µg/mL.
Regarding PGT-122 (antibody), the IC50 (µg/mL), pseudovirus neutralization in [17] was over 50 µg/mL; in experiment [18], over 50 µg/mL; in experiment [9], 2.04 µg/mL; in experiment [19], 0.009 µg/mL; in experiment [11], over 50 µg/mL; in [14], 0.056 µg/mL. Further, the IC50 neutralization in experiment [12] came out at 2.06 µg/mL; in experiment [15] it was 0.0851 µg/mL; in experiment [16] it was 0.0388 µg/mL.
Regarding PGV04 (antibody), the IC50 in experiment [17] is 6.78 µg/mL; in [18], 0.244 µg/mL; in experiment [9] it was 0.202 µg/mL; in experiment [11] it was 7.21 µg/mL. This substance also yielded a neutralization IC50 in [6] of over 50 µg/mL. The IC50 (µg/mL), pseudovirus neutralization in experiment [8] is 0.201 µg/mL; in experiment [20], 0.179 µg/mL; in [14], 2.98 µg/mL. For the same substance, the IC50, pseudovirus neutralization in experiment [21] is 0.553 µg/mL.

For the origin of these results see US20200024330A1.
